Source: the DeepSol protein solubility set

Assay: soluble on expression in E. coli; label from the status in PepcDB or PDB records

Sequence	soluble on expression in E. coli
MAAAKVALTKRADPAELRTIFLKYASIEKNGEFFMSPNDFVTRYLNIFGESQPNPKTVELLSGVVDQTKDGLISFQEFVAFESVLCAPDALFMVAFQLFDKAGKGEVTFEDVKQVFGQTTIHQHIPFNWDSEFVQLHFGKERKRHLTYAEFTQFLLEIQLEHAKQAFVQRDNARTGRVTAIDFRDIMVTIRPHVLTPFVEECLVAAAGGTTSHQVSFSYFNGFNSLLNNMELIRKIYSTLAGTRKDVEVTKEEFVLAAQKFGQVTPMEVDILFQLADLYEPRGRMTLADIERIAPLEEGTLPFNLAEAQRQKASGDSARPVLLQVAESAYRFGLGSVAGAVGATAVYPIDLVKTRMQNQRSTGSFVGELMYKNSFDCFKKVLRYEGFFGLYRGLLPQLLGVAPEKAIKLTVNDFVRDKFMHKDGSVPLAAEILAGGCAGGSQVIFTNPLEIVKIRLQVAGEITTGPRVSALSVVRDLGFFGIYKGAKACFLRDIPFSAIYFPCYAHVKASFANEDGQVSPGSLLLAGAIAGMPAASLVTPADVIKTRLQVAARAGQTTYSGVIDCFRKILREEGPKALWKGAGARVFRSSPQFGVTLLTYELLQRWFYIDFGGVKPMGSEPVPKSRINLPAPNPDHVGGYKLAVATFAGIENKFGLYLPLFKPSVSTSKAIGGGP	not soluble
MSAEYGQYGYYGGAGGAQTTTTPAAALAASIPATSVYGEQRPTFSEDGTGAPYSTILNLVGSAAVNSDISYDTSSKDPHMIRARVFIGNIARAIITRDDIIELFRPFGKIIAVNYFAQQGFGFVQFNEAGSADESCRSLNGMSWKACCLDVHLAMLGSLRKPTGNEGRQGNTIAPAPLPVGKPLTQHAVDTSAQSAKRPYEDEEYEIFKQNKRNKQFANGDTTINEQLAPNEMCDTMVCGYCRFVTSDFEEFKEHRIAGCNKYKDPEEPRHRLKCATCSQRFLGAWGLLEHLTDFHRMLLYTEEKMTPNDLAQMRGGSVSTPSSIPETPASGSAAPAAPNSANSTPSHHIVEGAPLSYSSNNGTPQI	not soluble
MSSPSGSSRTFPQYQSGSGWNAMLPKRTPRTAAPARRHFKSLVIGAGYTGLAAARRLAELQPQDQVLVVDATVAGEGSAGRNSGFLINLPHNTRMSGHHSPLEVARKQIAMLQSGLDWLAQLSGQGGFDCGWDLAGKYHAAATADGEQSLRGALQQYGQWGVAFSELDRDALQAQLGTRYYRFGYHSMNNVFVQPAALIRGLADSLPENVWLMEDNPVLSIDGSGPYKVRTRGGEFTADNVILANNAFARRLGFLRSRLVTIFTYAGVTPVLSPAQQALLGERDQWGVIPANRLGTTLRRISGGRFMVRSAYSYEAEQPLERMEQLLRDSFVRRYPDLAAHDFEYVWSGSTGLTGNGASFVGAIQPGLYASVGCNGAGVIKGTIYGKLLGEQVAGHRSAMLDDLASFEKPNWLPPEPLRRIGALSTIAYQARKAGLEKLEHHHHHH	not soluble
MKKWAVWLCSLLLLLPLSACTNDGGQSEKPLKKVRLAEVTHSIFYAPQYVALAKGFFKEEGLDVELTTTWGGDKTMTTLLSGGADIALVGSETSIYVYSQGTDDPVINFAQLTQTDGTFLVSRKKIGHFTWEMLKGSTFLGQRKGGMPQMVGEFVLKKHGIDPHQDLKLIQNVDFANIANAFASGTGDFVQLFEPTASLFEQEGKGYIVASFGTESGRVPYTSYMAKRSYMNENKDVIEKFTRAIYKAQQWVESHSAAEIAKAIQPYFKDTDSAIIEKVVERYKSQGTYATDPILDEEEWNNLQTIMAEAGELPKRIDLNTLVDSSFAKNAMND	not soluble
MSLAAEKLRLVADPWPPFTDALLLNGGLATDIVNTALKRAGYTTLYEQVPWARALLGLSEGRHDVLINAWFSEDRKKIGQFSAEYLLNRIRFIKRKESPIDALTHEQLHHYLIAVVRGYAYSPAFDSDVLLKKVPVQNFSTAVRMLAAERVDLTLEDEYVARYNLALEANEVRARVEFLPGSLSENSLHILVSLKNPHHAKIVADFDREIAAMKADGTYEELLRLHGLQGPPEEGHHHHHH	soluble
MSAACWEEPWGLPGGFAKRVLVTGGAGFIASHMIVSLVEDYPNYMIINLDKLDYCASLKNLETISNKQNYKFIQGDICDSHFVKLLFETEKIDIVLHFAAQTHVDLSFVRAFEFTYVNVYGTHVLVSAAHEARVEKFIYVSTDEVYGGSLDKEFDESSPKQPTNPYASSKAAAECFVQSYWEQYKFPVVITRSSNVYGPHQYPEKVIPKFISLLQHNRKCCIHGSGLQTRNFLYATDVVEAFLTVLKKGKPGEIYNIGTNFEMSVVQLAKELIQLIKETNSESEMENWVDYVNDRPTNDMRYPMKSEKIHGLGWRPKVPWKEGIKKTIEWYRENFHNWKNVEKALEPFPV	soluble
MATIGTFKKSGNEFSGEIVTLSVQAKGVRIVPESNRSGDNAPSHRVYVGRAEIGAAWSKTSNEGREYLGLKLDDPSFTAPIYANLFDDEEGDTFSLIWSRAAKRNGD	not soluble
MEKTTEGAFYTREYRNLFKEFGYSEAEIQERVKDTWEQLFGDNPETKIYYEVGDDLGYLLDTGNLDVRTAGMSYGMMMAVQMDRKDIFDRIWNWTMKNMYMTEGVHAGYFAWSCQPDGTKNSWGPAPDGEEYFALALFFASHRWGDGDEQPFNYSEQARKLLHTCVHNGEGGPGHPMWNRDNKLIKFIPEVEFSDPSYHLPHFYELFSLWANEEDRVFWKEAAEASREYLKIACHPETGLAPEYAYYDGTPNDEKGYGHFFSDSYRVAANIGLDAEWFGGSEWSAEEINKIQAFFADKEPEDYRRYKIDGEPFEEKSLHPVGLIATNAMGSLASVDGPYAKANVDLFWNTPVRTGNRRYYDNCLYLFAMLALSGNFKIWFPEGQEEEHLEHHHHHH	soluble
MGSDKIHHHHHHMSHHIEDLLNAWSAAPQDDWVLAVVTHVEGSAYRKVGAMMLIHGMGKSVGLVSGGCLEADLRRRAQKVIQTGQAASVCYDATDEADASYQLGCGGLVHLMLLPLCAANHYLHFQALKAALASQGRCHYQLMLTDESLSPGSLGAKVWTSQQALDDAKAGWQLSDFPRPGILQGQSMQGETVRGQSLQDESVQGESASLVVPLREHHRIAIFGGGLDAQPVCQIAQQLGWRVDVVDRRTSYAREYDFVGANIIKLPVSELPKNFWTRLDGAIVMQHNLELDAKALAAIHQHAKQLSYLALLGPGHRRDRVLALAGLEVASFGAYFSAPAGLALGGELPSSIALSILSECHGVLHGAKRVALKEVMA	not soluble
MEMSHRSSYFQSIIDEAGSLLRELMNIPDEYEVLFLQGGASLQFSMIPLNLMNTYKKAGYVLTGSWSKKALQEAEKVGEVQVIASSENEKFTTIPKLDGLLGDEKLDYVHITTNNTIEGTKYVDIPHVDKVPLVADMSPNILSERYDVSKFGLIYAGAQKNLGPAGLTIAIIKRDLIGGADRYCPTMLNYETYSKNNSLYNTLPSFSIYVTKLVLEWLKEQGGVSAIEEQNKMKSSLLYNFLDESKLLTSPVDPAYRSLMNIPFTTPSEELNNEFLQKAKERGLVTLKGHRSVGGMRASIYNAMPVQGVQQLVNYMKEFELENR	not soluble
MTFQKHVAHTQPAKLATTPSPPGTATTPSLMSEDDDHRTITESQEKRRSWLERLSAAFSGDPHTLDDLMVILRSAEHHGIIATDTLRMMEGAIAIADLTVGDVMVPRSQMVSLPVESDLQTITKQMVESGHSRFPVHGENKDEVLGILLAKDLLRGVSANHTITNVHELLRPVGMIPESKKLNVLLKEFRLSHNHMAIVVDEYGGVAGLVTIEDILEQIVGDIDDEHDETEDQTNMIAIQADGCYIVDALTPIEDFNERFNAEFPDDDYDTIGGLVTEAIGHLPETGDELTIGRFAFRVAKANARRIHILHVTVLPPNEQNTA	not soluble
MSLKHTRPSIVNKRIDGRLTMSDNSKTRVVVGMSGGVDSSVTALLLKEQGYDVIGIFMKNWDDTDENGVCTATEDYKDVVAVADQIGIPYYSVNFEKEYWDRVFEYFLAEYRAGRTPNPDVMCNKEIKFKAFLDYAMTLGADYVATGHYARVARDEDGTVHMLRGVDNGKDQTYFLSQLSQEQLQKTMFPLGHLKKPEVRKLAEEAGLSTAKKKDSTGICFIGEKNFKNFLSNYLPAQPGRMMTVDGRDMGEHAGLMYYTIGQRGGLGIGGQHGGDNAPWFVVGKDLSKNILYVGQGFYHDSLMSTSLEASQVHFTREMPEEFTLECTAKFRYRQPDSKVTVHVKGDKAEVIFAEPQRAITPGQAVVFYDGEECLGGGLIDNAYRDGQVCQYIEGHHHHHH	soluble
